Measured values as given in patent US20250296984A1, “THERAPEUTIC AND DIAGNOSTIC AGENTS AND USES THEREOF” (priority 2022, published 2025).
Marks after values point to notes of the source that are not given here.

Experiments:
[1] = target: T1, HCMV US28 (strain DB) on CHO-US28-A1 cells (Human cytomegalovirus, UniProt P69332, D170N/D19A); assay: FACS surface binding to CHO-US28-A1 cells; settings: CHO-US28-A1 cells compared with US28 negative control CHO cells
T1 construct: expressed in transfected cells; host or cells: CHO-K1 (vector pCDH-EF1a-MCS)
Description: Plasmid construction was performed to create a US28-overexpressing cell line. The US28 sequence, identical to HCMV DB strain (Acc. Number: KT959235; SEQ ID No. 5 of this application), fused to a 6His tag at its C terminal part, was inserted into the pCDH-EF1a-MCS vector (Creative Biolabs, Shirley, NY 11967, USA). The plasmid construct was transfected to CHO-K1 cell line. The cells were collected 48 hours after transfection. The cell line was named as CHO-US28-A1-6His and its protein sequence (SEQ ID NO: 47) is the following:
(§1) Flowcytometry was used to analyze cell surface binding by the US28 antibodies. Upon cell harvest, adherent non-infected and US28 overexpressing or HCMV infected cells were washed three times with cell staining buffer (phosphate-buffered saline (PBS (Amresco, Cleveland, 44139, USA) added 0.5% BSA and 0.05% Sodium Azide (NaN3)). The cells were trypisinized and then resuspended in DMEM with 10% FBS to inhibit the action of trypsin. The cells were then pelleted at 400×g for 10 minutes and washed three times in cell staining buffer. Cell viability and cell concentration were measured by tryphan blue viability assay and a cell counter (Countess, Invitrogen, Carlsbad, CA 92008, USA). The cell suspension was adjusted to 1×10^6 cells/mL with ice-cold cell staining buffer. The cells were blocked in 1 ml 10% FBS or 1% BSA in PBS per 1×10^6 cells, vortexed briefly, and incubated for 10-30 minutes to eliminate non-specific staining. The cells were then stained with the respective antibodies and appropriate negative controls.
The primary antibodies used were I) 13-5G6-1D3 (50 μg/ml) as a positive control; II) Monovalent and Bivalent VUN100 ScFvs 1:1 (50 μg/ml); III) test antibodies for the specified subclones (1:5).
The primary antibodies used were I) 13-5G6-1D3 1:50 to 50 μg/ml; and II) Commercial US28 polyclonal antibody (50 μg/ml), III) Monovalent and Bivalent VUN100 ScFvs (50 μg/ml) and for certain experiments, the appropriate isotype controls were included.
(§2) In both cases (ECD1 and ECD3), the antibodies were added to the cells, vortexed and incubated on ice for 15 to 30 minutes up to overnight and washed twice with cell staining buffer to remove any unbound antibodies. In addition, the CMV Immediate Early Antigen (IE) Alexa488 Ab, MAB810X, 1:50 was included to verify HCMV infected cells in one of the experiments. Because it binds to an intracellular, HCMV encoded protein, it was added after permeabilizing the cells in 70% ethanol for 30 min on ice.
(§3) 1:500-1:5000 in cell staining buffer of the appropriate fluorescent-conjugated appropriate secondary antibodies were added and incubated on ice for 15-20 min in the dark. The cells were washed three times to remove any unbound antibodies. The cells were then fixed with 0.5% paraformaldehyde (PFA) for 30 min on ice and resuspended in 200-500 μL cell staining buffer for final flow cytometric analysis using an Accuri C6 flow cytometry system (BD Biosciences, San Jose, CA 95131, USA). Data analyses were performed using FlowJo software v8.8 (Treestar Inc. Ashland, OR 97520, USA).
(§4) Background levels were determined using the respective secondary antibodies (anti-mFc-FITC for the subclones, or anti-myc-PE for the VUN100 molecules) with CHO cells and CHO-US28 cells. Given that US28 is expressed on the cell surface, the cells were non-permeabilised for these experiments.

[2] = tested on: control CHO cells (US28 negative); assay: FACS binding to US28 negative control CHO cells; parameters: species or system Chinese hamster; settings: Table 7A; (1:5) (200 μg/ml); secondary antibody background removed
Description: as §1, §2, §3, §4

[3] = target: T2, Peptide-2 […] (SEQ ID NO: 7), US28 ECD3 4D variant (Human cytomegalovirus, UniProt P69332); assay: ELISA, binding to Bio-Peptide-2; parameters: species or system HCMV; settings: 4D variant peptide
T2 construct: made in house; host or cells: chemical synthesis
Description: Microtiter plate wells were coated with 100 μl of the solution containing: (i) Bio-Peptide-N; or (ii) Bio-Peptide-1 and Bio-Peptide-2; at a concentration of between 1-10 μg/ml in coating buffer, consisting of Na2CO3, 1.5 g and NaHCO3, 2.93 g in 1 L of distilled water in pH 9.6, and then incubated for 1-2 hours at room temperature. The plate was washed 3 times in wash buffer consisting of PBS containing 0.05% v/v Tween-20 and blotted with paper towels thereafter. 150 μl of blocking solution containing Phosphate buffered saline (PBS) containing 1% w/v BSA, was added to each well and the plate was incubated for 2 hours at 37° C. The wells were washed 4 times in wash buffer and blotted on paper towels after the last wash. 100 μl of antibody dilution was added to each well and the plate was incubated for 1 hour at 37° C. and thereafter washed 3 times in wash buffer. 100 μl enzyme-conjugated secondary antibody (appropriately diluted in wash buffer) was added to each well and the plate was incubated for 1 hour at 37° C. The wells were then again washed 3 times in wash buffer and blotted with paper towels after the last wash. […] The absorbance values were read immediately at the appropriate wavelength and the data analyzed by Cmax Plus, Molecular Devices, San Jose, CA 95134, USA, […]

| Molecule | Binding Specificity (ratio of surface binding) [1] | Percentage of binding to CHO cells [2] | Absorbance values, Peptide 2 [3] |
| --- | --- | --- | --- |
| 13-5G6-1D3 clone: antibody from hybridoma clone US28-13-5G6-1D3 (antibody) heavy: EVKLVESGGGLVQPGGSLRLACATSGFTFTDYYMSWVRQPPGKALEWLGFIRSKANGYTTEYSASVKGRFTISRDNSQSILYLQMNTLRSEDSATYYCARDERRTAWLAYWGQGTLVTVSAAKTTPPSVYPLAPGSAAQTNSMVTLGCLVKGYFPEPVTVTWNSGSLSSGVHTFPAVLQSDLYTLSSSVTVPSSTWPSETVTCNVAHPASSTKVDKKIVPRDCGCKPCICTVPEVSSVFIFPPKPKDVLTITLTPKVTCVVVDISKDDPEVQFSWFVDDVEVHTAQTQPREEQFNSTFRSVSELPIMHQDWLNGKEFKCRVNSAAFPAPIEKTISKTKGRPKAPQVYTIPPPKEQMAKDKVSLTCMITDFFPEDITVEWQWNGQPAENYKNTQPIMDTDGSYFIYSKLNVQKSNWEAGNTFTCSVLHEGLHNHHTEKSLSHSPGK light: DVLMTQTPLSLPVSLGDQASISCRSSQSIVHSNGNTYLDWYLQKPGQSPKLLIYKVSNRFSGVPDRFSGSGSGTDFTLKISRVEAEDLGVYYCFQGSHVPTWTFGGGTKLEIKRADAAPTVSIFPPSSEQLTSGGASVVCFLNNFYPKDINVKWKIDGSERQNGVLNSWTDQDSKDSTYSMSSTLTLTKDEYERHNSYTCEATHKTSTSPIVKSFNRNEC | 15.2* |  |  |
| 13-1C10-1C10: mouse hybridoma subclone antibody against US28 ECD3 Peptide-1 and -2; sequenced (antibody) heavy: EVKLVESGGVLVKPGGSLKFSCAASGFTFSSHALSWVRQTPEKRLEWVASISSRGRTYYPDSVKGRFTVSRDNARNILYLQVSSLRSEDTAMYYCTRGGTHYSYGNGFDFWGQGTTLTVSSAKTTPPSVYPLAPGSAAQTNSMVTLGCLVKGYFPEPVTVTWNSGSLSSGVHTFPAVLQSDLYTLSSSVTVPSSTWPSETVTCNVAHPASSTKVDKKIVPRDCGCKPCICTVPEVSSVFIFPPKPKDVLTITLTPKVTCVVVDISKDDPEVQFSWFVDDVEVHTAQTQPREEQFNSTFRSVSELPIMHQDWLNGKEFKCRVNSAAFPAPIEKTISKTKGRPKAPQVYTIPPPKEQMAKDKVSLTCMITDFFPEDITVEWQWNGQPAENYKNTQPIMDTDGSYFIYSKLNVQKSNWEAGNTFTCSVLHEGLHNHHTEKSLSHSPGK light: QIVLTQSPAIMSASPGEKVTMTCSVSSSVSYMHWYQQKSGTSPKRWIYDTSKLASGVPARFSGSGSGTSYSLTISTMEAEDAATYYCQQWSNNPPITFGAGTKLELKRADAAPTVSIFPPSSEQLTSGGASVVCFLNNFYPKDINVKWKIDGSERQNGVLNSWTDQDSKDSTYSMSSTLTLTKDEYERHNSYTCEATHKTSTSPIVKSFNRNEC |  | 0.62% | 3.029 |
| 14-1H3-1A10: mouse hybridoma subclone antibody against US28 ECD3 Peptide-1 and -2; sequenced (antibody) heavy: EVKLVESGGVLVKPGGSLKFSCAASGFTLSSHALSWVRQTPEKRLEWVASISSRGRTYYPDSVKGRFTVSRDNARNILYLQVSSLRSEDTAMYYCTRGGTHYSYGNGFDFWGQGTTLTVSSAKTTPPSVYPLAPGSAAQTNSMVTLGCLVKGYFPEPVTVTWNSGSLSSGVHTFPAVLQSDLYTLSSSVTVPSSTWPSETVTCNVAHPASSTKVDKKIVPRDCGCKPCICTVPEVSSVFIFPPKPKDVLTITLTPKVTCVVVDISKDDPEVQFSWFVDDVEVHTAQTQPREEQFNSTFRSVSELPIMHQDWLNGKEFKCRVNSAAFPAPIEKTISKTKGRPKAPQVYTIPPPKEQMAKDKVSLTCMITDFFPEDITVEWQWNGQPAENYKNTQPIMDTDGSYFIYSKLNVQKSNWEAGNTFTCSVLHEGLHNHHTEKSLSHSPGK light: QIVLTQSPAIMSASPGEKVTMTCSVSSSVSYMHWYQQKSGTSPKRWIYDTSKLASGVPARFSGSGSGTSYSLTISTMEAEDAATYYCQQWSNNPPITFGAGTKLELKRADAAPTVSIFPPSSEQLTSGGASVVCFLNNFYPKDINVKWKIDGSERQNGVLNSWTDQDSKDSTYSMSSTLTLTKDEYERHNSYTCEATHKTSTSPIVKSFNRNEC |  | 0.58% | 2.842 |
